Laboratory results from FireProtDB (doi:10.1002/pro.370).

B1: Guanyl-specific ribonuclease Sa, P05798 (parent)
chain: DVSGTVCLSALPPEATDTLNLIASDGPFPYSQDGVVFQNRESVLPTQSYGYYHEYTVITPGARTRGTRRIITGEATQEDYYTGDHYATFSLIDQTC

Variants of: B1
Conditions: Kitasatospora aureofaciens, 25 °C, Urea, CD, structure 1RGG, whole UniProt chain shown

Variant | ddG of mutation (higher = less stable) (pH 3, Glycine 30 mM) | denaturant m value (pH 3, Glycine 30 mM) | denaturant midpoint (higher = more stable) (pH 3, Glycine 30 mM) | unfolding free energy (pH 3, Glycine 30 mM) | ddG of mutation (higher = less stable) (pH 7, MOPS 30 mM) | denaturant m value (pH 7, MOPS 30 mM) | denaturant midpoint (higher = more stable) (pH 7, MOPS 30 mM) | unfolding free energy (pH 7, MOPS 30 mM)
D1K D17K E41K D25K E74K D79K | -0.2 kcal/mol | 2.25 kcal/mol/M | 1.2 M | 2.7 kcal/mol | -0.7 kcal/mol | 1.03 kcal/mol/M | 6.9 M | 7.1 kcal/mol
R40E R63E | -1.1 kcal/mol | 1.66 kcal/mol/M | 2.2 M | 3.7 kcal/mol |  |  |  | 
D1K D17K E41K D25K E74K D79K S31K | 0 kcal/mol | 2.37 kcal/mol/M | 1.1 M | 2.6 kcal/mol | -0.2 kcal/mol | 1.15 kcal/mol/M | 5.7 M | 6.6 kcal/mol
R40E R63E R65A R68A R69A | -2.7 kcal/mol | 1.17 kcal/mol/M | 4.5 M | 5.3 kcal/mol | 2.5 kcal/mol | 0.85 kcal/mol/M | 4.6 M | 3.9 kcal/mol
D1K D17K E41K | -0.7 kcal/mol | 1.95 kcal/mol/M | 1.7 M | 3.3 kcal/mol | 2.7 kcal/mol | 0.93 kcal/mol/M | 4 M | 3.7 kcal/mol
R40E | -0.3 kcal/mol | 1.52 kcal/mol/M | 1.9 M | 2.9 kcal/mol |  |  |  | 
D1K D17K E41K D25K E74K | -0.9 kcal/mol | 1.92 kcal/mol/M | 1.8 M | 3.5 kcal/mol | 0.7 kcal/mol | 1.07 kcal/mol/M | 5.3 M | 5.7 kcal/mol
